{"source": "the supplement of paper PMC11316812", "key": {"MCF7": {"system": "MCF7", "experiment": "percentage of EdU-negative (G0-arrested) nuclei per well, 72 h; higher = more G0 arrest", "details": "reference: sequence is the full UniProt precursor, the tested protein was the secreted form or ectodomain"}, "hTERT-HMEC": {"system": "hTERT-HMEC", "experiment": "percentage of EdU-negative (G0-arrested) nuclei per well, 72 h; higher = more G0 arrest", "details": "reference: sequence is the full UniProt precursor, the tested protein was the secreted form or ectodomain"}, "[1]": {"details": "protein concentration 0.01325 µM"}, "[2]": {"details": "protein concentration 0.1325 µM"}, "[3]": {"details": "protein concentration 0.018725 µM"}, "[4]": {"details": "protein concentration 0.18725 µM"}, "[5]": {"details": "protein concentration 0.03125 µM"}, "[6]": {"details": "protein concentration 0.3125 µM"}, "[7]": {"details": "protein concentration 0.0257143 µM"}, "[8]": {"details": "protein concentration 0.257143 µM"}, "[9]": {"details": "protein concentration 0.01547 µM"}, "[10]": {"details": "protein concentration 0.1547 µM"}, "[11]": {"details": "protein concentration 0.0225 µM"}, "[12]": {"details": "protein concentration 0.0107825 µM"}, "[13]": {"details": "protein concentration 0.107825 µM"}}, "note": "± gives the standard deviation of the averaged measurements.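 Also: secreted proteins added to cultured cells, EdU pulse at the end, nuclei found by Hoechst imaging, EdU status from nuclear versus surrounding ring intensity ratio, PBS as neutral control.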"}
{"sequence": "MTPPKLRASLSPSLLLLLSGCLLAAARREKGAASNVAEPVPGPTGGSSGRFLSPEQHACSWQLLLPAPEAAAGSELALRCQSPDGARHQCAYRGHPERCAAYAARRAHFWKQVLGGLRKKRRPCHDPAPLQARLCAGKKGHGAELRLVPRASPPARPTVAGFAGESKPRARNRGRTRERASGPAAGTPPPQSAPPKENPSERKTNEGKRKAALVPNEERPMGTGPDPDGLDGNAELTETYCAEKWHSLCNFFVNFWNG [Q8TAT2]", "values": [{"measurement": "percentage of EdU-negative", "setting": "MCF7; [1]", "result": "25.1 ± 0.15", "unit": "%"}, {"measurement": "percentage of EdU-negative", "setting": "MCF7; [2]", "result": "27.7 ± 1.3", "unit": "%"}, {"measurement": "percentage of EdU-negative", "setting": "hTERT-HMEC; [1]", "result": "4.87 ± 0.1", "unit": "%"}, {"measurement": "percentage of EdU-negative", "setting": "hTERT-HMEC; [2]", "result": "6.22 ± 0.9", "unit": "%"}]}
{"sequence": "MQRGAALCLRLWLCLGLLDGLVSGYSMTPPTLNITEESHVIDTGDSLSISCRGQHPLEWAWPGAQEAPATGDKDSEDTGVVRDCEGTDARPYCKVLLLHEVHANDTGSYVCYYKYIKARIEGTTAASSYVFVRDFEQPFINKPDTLLVNRKDAMWVPCLVSIPGLNVTLRSQSSVLWPDGQEVVWDDRRGMLVSTPLLHDALYLQCETTWGDQDFLSNPFLVHITGNELYDIQLLPRKSLELLVGEKLVLNCTVWAEFNSGVTFDWDYPGKQAERGKWVPERRSQQTHTELSSILTIHNVSQHDLGSYVCKANNGIQRFRESTEVIVHENPFISVEWLKGPILEATAGDELVKLPVKLAAYPPPEFQWYKDGKALSGRHSPHALVLKEVTEASTGTYTLALWNSAAGLRRNISLELVVNVPPQIHEKEASSPSIYSRHSRQALTCTAYGVPLPLSIQWHWRPWTPCKMFAQRSLRRRQQQDLMPQCRDWRAVTTQDAVNPIESLDTWTEFVEGKNKTVSKLVIQNANVSAMYKCVVSNKVGQDERLIYFYVTTIPDGFTIESKPSEELLEGQPVLLSCQADSYKYEHLRWYRLNLSTLHDAHGNPLLLDCKNVHLFATPLAASLEEVAPGARHATLSLSIPRVAPEHEGHYVCEVQDRRSHDKHCHKKYLSVQALEAPRLTQNLTDLLVNVSDSLEMQCLVAGAHAPSIVWYKDERLLEEKSGVDLADSNQKLSIQRVREEDAGRYLCSVCNAKGCVNSSASVAVEGSEDKGSMEIVILVGTGVIAVFFWVLLLLIFCNMRRPAHADIKTGYLSIIMDPGEVPLEEQCEYLSYDASQWEFPRERLHLGRVLGYGAFGKVVEASAFGIHKGSSCDTVAVKMLKEGATASEHRALMSELKILIHIGNHLNVVNLLGACTKPQGPLMVIVEFCKYGNLSNFLRAKRDAFSPCAEKSPEQRGRFRAMVELARLDRRRPGSSDRVLFARFSKTEGGARRASPDQEAEDLWLSPLTMEDLVCYSFQVARGMEFLASRKCIHRDLAARNILLSESDVVKICDFGLARDIYKDPDYVRKGSARLPLKWMAPESIFDKVYTTQSDVWSFGVLLWEIFSLGASPYPGVQINEEFCQRLRDGTRMRAPELATPAIRRIMLNCWSGDPKARPAFSELVEILGDLLQGRGLQEEEEVCMAPRSSQSSEEGSFSQVSTMALHIAQADAEDSPPSLQRHSLAARYYNWVSFPGCLARGAETRGSSRMKTFEEFPMTPTTYKGSVDNQTDSGMVLASEEFEQIESRHRQESGFSCKGPGQNVAVTRAHPDSQGRRRRPERGARGGQVFYNSEYGELSEPSEEDHCSPSARVTFFTDNSY", "values": [{"measurement": "percentage of EdU-negative", "setting": "MCF7; [3]", "result": "25.2 ± 1.4", "unit": "%"}, {"measurement": "percentage of EdU-negative", "setting": "MCF7; [4]", "result": "25.66 ± 0.24", "unit": "%"}, {"measurement": "percentage of EdU-negative", "setting": "hTERT-HMEC; [3]", "result": "5.19 ± 0.73", "unit": "%"}, {"measurement": "percentage of EdU-negative", "setting": "hTERT-HMEC; [4]", "result": "6.63 ± 1.2", "unit": "%"}]}
{"sequence": "MIPAKDMAKVMIVMLAICFLTKSDGKSVKKRSVSEIQLMHNLGKHLNSMERVEWLRKKLQDVHNFVALGAPLAPRDAGSQRPRKKEDNVLVESHEKSLGEADKADVNVLTKAKSQ", "values": [{"measurement": "percentage of EdU-negative", "setting": "MCF7; [5]", "result": "25.8 ± 0.95", "unit": "%"}, {"measurement": "percentage of EdU-negative", "setting": "MCF7; [6]", "result": "25 ± 0.47", "unit": "%"}, {"measurement": "percentage of EdU-negative", "setting": "hTERT-HMEC; [5]", "result": "4.88 ± 0.23", "unit": "%"}, {"measurement": "percentage of EdU-negative", "setting": "hTERT-HMEC; [6]", "result": "6.37 ± 2", "unit": "%"}]}
{"sequence": "MKPWILLLVMFISGVVMLLPVLGSFWNKDPFLDMIRETEQCWVQPPYKYCEKRCTKIMTCVRPNHTCCWTYCGNICLDNEEPLKSMLNP [Q8NEX5]", "values": [{"measurement": "percentage of EdU-negative", "setting": "MCF7; [7]", "result": "26 ± 0.26", "unit": "%"}, {"measurement": "percentage of EdU-negative", "setting": "MCF7; [8]", "result": "26.31 ± 0.064", "unit": "%"}, {"measurement": "percentage of EdU-negative", "setting": "hTERT-HMEC; [7]", "result": "5.54 ± 0.81", "unit": "%"}, {"measurement": "percentage of EdU-negative", "setting": "hTERT-HMEC; [8]", "result": "5.1 ± 0.81", "unit": "%"}]}
{"sequence": "MSWSLHPRNLILYFYALLFLSSTCVAYVATRDNCCILDERFGSYCPTTCGIADFLSTYQTKVDKDLQSLEDILHQVENKTSEVKQLIKAIQLTYNPDESSKPNMIDAATLKSRKMLEEIMKYEASILTHDSSIRYLQEIYNSNNQKIVNLKEKVAQLEAQCQEPCKDTVQIHDITGKDCQDIANKGAKQSGLYFIKPLKANQQFLVYCEIDGSGNGWTVFQKRLDGSVDFKKNWIQYKEGFGHLSPTGTTEFWLGNEKIHLISTQSAIPYALRVELEDWNGRTSTADYAMFKVGPEADKYRLTYAYFAGGDAGDAFDGFDFGDDPSDKFFTSHNGMQFSTWDNDNDKFEGNCAEQDGSGWWMNKCHAGHLNGVYYQGGTYSKASTPNGYDNGIIWATWKTRWYSMKKTTMKIIPFNRLTIGEGQQHHLGGAKQVRPEHPAETEYDSLYPEDDL", "values": [{"measurement": "percentage of EdU-negative", "setting": "MCF7; [9]", "result": "24 ± 1.3", "unit": "%"}, {"measurement": "percentage of EdU-negative", "setting": "MCF7; [10]", "result": "25 ± 2", "unit": "%"}, {"measurement": "percentage of EdU-negative", "setting": "hTERT-HMEC; [9]", "result": "5.07 ± 0.17", "unit": "%"}, {"measurement": "percentage of EdU-negative", "setting": "hTERT-HMEC; [10]", "result": "5.92 ± 0.15", "unit": "%"}]}
{"sequence": "MTRTYENFQYLENKVKVQGFKNGPLPLQSLLQRLCSGPCHLLLSLGLGLLLLVIICVVGFQNSKFQRDLVTLRTDFSNFTSNTVAEIQALTSQGSSLEETIASLKAEVEGFKQERQAGVSELQEHTTQKAHLGHCPHCPSVCVPVHSEMLLRVQQLVQDLKKLTCQVATLNNNASTEGTCCPVNWVEHQDSCYWFSHSGMSWAEAEKYCQLKNAHLVVINSREEQNFVQKYLGSAYTWMGLSDPEGAWKWVDGTDYATGFQNWKPGQPDDWQGHGLGGGEDCAHFHPDGRWNDDVCQRPYHWVCEAGLGQTSQESH [Q8IUN9]", "values": [{"measurement": "percentage of EdU-negative", "setting": "MCF7; [11]", "result": "24.9 ± 1", "unit": "%"}, {"measurement": "percentage of EdU-negative", "setting": "MCF7; protein concentration 0.225 µM", "result": "26.5 ± 0.74", "unit": "%"}, {"measurement": "percentage of EdU-negative", "setting": "hTERT-HMEC; [11]", "result": "5.25 ± 0.3", "unit": "%"}, {"measurement": "percentage of EdU-negative", "setting": "hTERT-HMEC; protein concentration 0.225 µM", "result": "4.954 ± 0.011", "unit": "%"}]}
{"sequence": "MTILFLTMVISYFGCMKAAPMKEANIRGQGGLAYPGVRTHGTLESVNGPKAGSRGLTSLADTFEHVIEELLDEDQKVRPNEENNKDADLYTSRVMLSSQVPLEPPLLFLLEEYKNYLDAANMSMRVRRHSDPARRGELSVCDSISEWVTAADKKTAVDMSGGTVTVLEKVPVSKGQLKQYFYETKCNPMGYTKEGCRGIDKRHWNSQCRTTQSYVRALTMDSKKRIGWRFIRIDTSCVCTLTIKRGR", "values": [{"measurement": "percentage of EdU-negative", "setting": "MCF7; [12]", "result": "26.6 ± 0.45", "unit": "%"}, {"measurement": "percentage of EdU-negative", "setting": "MCF7; [13]", "result": "28.7 ± 1.2", "unit": "%"}, {"measurement": "percentage of EdU-negative", "setting": "hTERT-HMEC; [12]", "result": "5.167 ± 0.044", "unit": "%"}, {"measurement": "percentage of EdU-negative", "setting": "hTERT-HMEC; [13]", "result": "7.06 ± 0.31", "unit": "%"}]}
